The record followed here is publication PMC8693265, “Investigation of PAS and CNBH domain interactions in hERG channels and effects of long-QT syndrome-causing mutations with surface plasmon resonance” (The Journal of Biological Chemistry, 2021).

Like-named read-outs stand apart in the source and are kept apart here.

To fix the notation:
B1: hERG CNBH domain (residues 734-867) (domain or fragment, human, UniProt Q12809 734-867, looked up)
chain: RSLLQHCKPFRGATKGCLRALAMKFKTTHAPPGDTLVHAGDLLTALYFISRGSIEILRGDVVVAILGKNDIFGEPLNLYARPGKSNGDVRALTYCDLHKIHRDDLLEVLDMYPEFSDHFWSSLEITFNLRDTNM
notes: also called isolated CNBH domain; not shown: 6-His, N-terminal, cleaved
B3: hERG PAS domain (residues 2-134) (domain or fragment, human, UniProt Q12809 2-134, looked up)
chain: PVRRGHVAPQNTFLDTIIRKFEGQSRKFIIANARVENCAVIYCNDGFCELCGYSRAEVMQRPCTCDFLHGPRTQRRAAAQIAQALLGAEERKVEIAFYRKDGSCFLCLVDVVPVKNEDGAVIMFILNFEVVME
notes: PAS domain (with PAS-cap) of the human ether-a-go-go-related gene (hERG, Kv11.1, KCNH2) channel, residues 2-134; Cloned in pETM11; The PAS domain expressed from mRNA in oocytes (pGH19) is written under this molecule in the functional rows; also called isolated PAS domain; free PAS domain; not shown: 6-His, N-terminal, cleaved

What all share (test): SPR; one domain amine-coupled to a CM5 chip (~2000-3000 RU), the other injected as analyte over a range of concentrations (maximum 10 uM); Biacore T200, 25 C; 150 mM KCl, 1 mM TCEP, 10% glycerol, 0.05% Tween 20, 30 mM HEPES pH 7.5; fits with the two-state reaction model; for PAS/PAS and CNBH/CNBH the step of oligomerisation is not told
Background: Surface plasmon resonance follows binding to a sensor surface in real time, without labels.

Data set [1] concerns the molecule itself.
Data set [2] deals with the molecule itself. The source holds these as a separate data set.
For data set [3], the target named is B3. Conditions: both partners purified.
Data set [4] addresses B1. Conditions: both partners purified.
Data set [5] concerns the target B1. Conditions: both partners purified. The source holds these as a separate data set.

With B1, the Kd (usually the constant that tells how readily two partners part at equilibrium) in data set [1] was found to be 2700 nM; in data set [2], 5000 nM.

B2: mEAG PAS domain (residues 7-136) (domain or fragment, mouse (from the name mEAG), UniProt Q60603 7-136, looked up)
chain: RRGLVAPQNTFLENIVRRSNDTNFVLGNAQIVDWPIVYSNDGFCKLSGYHRAEVMQKSSACSFMYGELTDKDTVEKVRQTFENYEMNSFEILMYKKNRTPVWFFVKIAPIRNEQDKVVLFLCTFSDITAF
notes: PAS domain of the mEAG channel, residues 7-136; not shown: 6-His, N-terminal, cleaved
As to B2, the Kd in data set [3] was ~5600 nM; in data set [4] it was ~1700 nM.

B3: the results for the Kd in data set [1], in data set [5] and in data set [2] were 1600 nM, 1400 nM and 400 nM, respectively.

B4: hERG PAS domain with the LQTS-causing mutation E58D (domain or fragment, human, UniProt Q12809 2-134, looked up)
chain: PVRRGHVAPQNTFLDTIIRKFEGQSRKFIIANARVENCAVIYCNDGFCELCGYSRADVMQRPCTCDFLHGPRTQRRAAAQIAQALLGAEERKVEIAFYRKDGSCFLCLVDVVPVKNEDGAVIMFILNFEVVME
notes: PAS domain of the hERG (KCNH2) channel, residues 2-134, with the genetically occurring LQTS mutation E58D; also called PAS-E58D; not shown: 6-His, N-terminal, cleaved
For B4, the Kd worked out at 600 nM in data set [5] and 200 nM in data set [4].

B5: hERG PAS domain with the LQTS-causing mutation R20G (domain or fragment, human, UniProt Q12809 2-134, looked up)
chain: PVRRGHVAPQNTFLDTIIGKFEGQSRKFIIANARVENCAVIYCNDGFCELCGYSRAEVMQRPCTCDFLHGPRTQRRAAAQIAQALLGAEERKVEIAFYRKDGSCFLCLVDVVPVKNEDGAVIMFILNFEVVME
notes: PAS domain of the hERG (KCNH2) channel, residues 2-134, with the genetically occurring LQTS mutation R20G; also called PAS-R20G; not shown: 6-His, N-terminal, cleaved
Consider B5, for which the Kd in data set [5] was determined as 3600 nM; in data set [4], 2000 nM.
